Experimental data as given in publication PMC7921663.

How the values were obtained:
Details in all cases: FA: 50 mM NaCl, 50 mM Tris-HCl pH 8.0, 5 mM DTT, 5 mM MgCl2, room temp, 30 nM FAM substrate, EMSA: 10 mM NaCl, 0.2 mM EDTA, 5 mM b-mercaptoethanol, 0.1% NP-40 …
PARP1 (human) [1] = assay: fluorescence anisotropy
PARP2 (mouse) [2] = assay: fluorescence anisotropy
PARP1 (human) [3] = assay: EMSA
PARP2 (mouse) [4] = assay: EMSA
[5] = AP site at the U of primer S1 (UDG-generated)
[6] = AP site at the U of primer S1 (UDG-generated), midward-oriented
[7] = AP site at the U of primer S3 (UDG-generated)
[8] = AP site at the U of primer S3 (UDG-generated), outward-oriented
[9] = single-nt gap with 5'-dRP at the U of primer S1 (UDG + APE1)
[10] = single-nt gap with 5'-dRP at the U of primer S1 (UDG + APE1), midward-oriented
[11] = single-nt gap with 5'-dRP at the U of primer S3 (UDG + APE1)
[12] = single-nt gap with 5'-dRP at the U of primer S3 (UDG + APE1), outward-oriented

**Q.** Which results are given for AP mid-DNA?
**A.** Kd (PARP1 (human) [1]; [5]): 23 nM; Kd (PARP2 (mouse) [2]; [5]): 690 nM

**Q.** What does the source list for AP mid-NCP?
**A.** Kd (PARP1 (human) [1]; [6]): 12 nM; Kd (PARP2 (mouse) [2]; [6]): 162 nM

**Q.** AP out-DNA was tested. Which Kd (PARP1 (human) [1]; [7]) did it give?
**A.** The Kd was 23 nM.

**Q.** And the Kd (PARP2 (mouse) [2]; [7])?
**A.** The Kd was 811 nM.

**Q.** AP out-NCP was tested. Which Kd (PARP1 (human) [3]; [8]) did it give?
**A.** Its Kd is 61 nM.

**Q.** And the Kd (PARP2 (mouse) [4]; [8])?
**A.** Its Kd is 130 nM.

**Q.** What about the Kd (PARP1 (human) [1]; [8]) of the same substance?
**A.** Its Kd is 7 nM.

**Q.** What about the Kd (PARP2 (mouse) [2]; [8]) of the same substance?
**A.** Its Kd is 160 nM.

**Q.** Which Kd (PARP1 (human) [1]; [9]) does the source give for gap mid-DNA here?
**A.** Its Kd is 25 nM.

**Q.** And the Kd (PARP2 (mouse) [2]; [9])?
**A.** Its Kd is 145 nM.

**Q.** Which results are given for gap mid-NCP?
**A.** Kd (PARP1 (human) [1]; [10]): 14 nM; Kd (PARP2 (mouse) [2]; [10]): 128 nM

**Q.** gap out-DNA was tested. Which Kd (PARP1 (human) [1]; [11]) did it give?
**A.** Its Kd is 29 nM.

**Q.** What about the Kd (PARP2 (mouse) [2]; [11]) of the same substance?
**A.** Its Kd is 58 nM.

**Q.** For gap out-NCP, which Kd (PARP1 (human) [3]; [12]) is on record?
**A.** Its Kd is 38 nM.

**Q.** And the Kd (PARP2 (mouse) [4]; [12])?
**A.** Its Kd is 57 nM.

**Q.** What about the Kd (PARP1 (human) [1]; [12]) of the same substance?
**A.** Its Kd is 10 nM.

**Q.** What about the Kd (PARP2 (mouse) [2]; [12]) of the same substance?
**A.** Its Kd is 14 nM.

**Q.** Which results are given for native mid-DNA?
**A.** Kd (PARP1 (human) [1]): 14 nM; Kd (PARP2 (mouse) [2]): 608 nM

**Q.** Which Kd (PARP1 (human) [1]) does the source give for native mid-NCP here?
**A.** Its Kd is 11 nM.

**Q.** What about the Kd (PARP2 (mouse) [2]) of the same substance?
**A.** Its Kd is 151 nM.

**Q.** With native out-DNA as the substance, how does the Kd (PARP1 (human) [1]) read?
**A.** Its Kd is 14 nM.

**Q.** And the Kd (PARP2 (mouse) [2])?
**A.** The Kd was 839 nM.

**Q.** With native out-NCP as the substance, how does the Kd (PARP1 (human) [3]) read?
**A.** The Kd was 65 nM.

**Q.** What about the Kd (PARP2 (mouse) [4]) of the same substance?
**A.** The Kd was 192 nM.

**Q.** And the Kd (PARP1 (human) [1])?
**A.** The Kd was 14 nM.

**Q.** What about the Kd (PARP2 (mouse) [2]) of the same substance?
**A.** Its Kd is 156 nM.
